Data reported in the DeepSol protein solubility set.

Experiment: soluble on expression in E. coli; label from the status in PepcDB or PDB records

MTWKPNVTVAAVIEQDDKYLLVEEIPRGTAIKLNQPAGHLEPGESIIQACSREVLEETGHSFLPEVLTGIYHWTCASNGTTYLRFTFSGQVVSFDPDRKLDTGIVRAAWFSIDEIRAKQAMHRTPLVMQCIEDYHAGKRYPLDILQYYD
soluble on expression in E. coli: soluble

MAIALSTLVEEADRYLDAARIQDYCPNGLQVEGRPQVRRIVSGVTASQALLDAAVEADADVVLVHHGYFWKGENPCVVGMKQRRLKTLLNNDISLLAYHLPLDLHPEVGNNVQLARQLGFEVEGPLEPGNPRSIVLLGSLAEPMQPADFARHVRDALGREPLLVDAGQPIRRIAWCTGGAQGYIDQAIAAGVDAYLTGEVSEQTVHSARENGISFIAAGHHATERYGVQALGDYLGKRFAIEHLFIDCPNPALEHHHHHH
soluble on expression in E. coli: soluble

MLKMIAFDFDGTLAPTIPMVIDVFRRSVAPYVEHELTKQAIVQTFGLNEVGMVKAVAGQRWPVALAAFYQEYARAHLRVSAPYPGIVTLLELLQQQGVALALITGKAAKSCQISLDVTGLTSYFPTRLYGSECQPNKADNLRQLMRTKSLDAAELFYVGDTRSDFEAADTAGVQCLTAAWDPNQPIVEAGDQIVFTSVEQLWAYLQRRLGHGLVRPMSHKPR
soluble on expression in E. coli: not soluble

GPGSMCVCASDCVTPMKRDTKGKLSYDMEPAEHRLSSSRSSSCNVVMTAADELAMQINDCRSLFPCIDAGSAVASIRPTSPSGRTVVARVPWTKSTGTTQTPAPEPTRCAVEVRFGYAEGFVCDEKVYEALLPLLLENGLQGAACVVDSDVSDS
soluble on expression in E. coli: not soluble

MPKIQNIVTVSSQEYRDAMSHFAGAVHIVTTNGIKGKRGVTISACCSLSDDPPTLLVCLMRHNLKNHLFIENGNFCVNSLAGKHRSLADIFSRRYNYTETECFDRAQWGTLQTGAPSLSDALASFDCRLICWHEHATHYILIGEVIAINRNQEKDALIYLNRGYHTLPL
soluble on expression in E. coli: not soluble

MGSDKIHHHHHHMATLSTVPRIHYLRVQNFRALRNIELKNITPLTVLLGPNGSGKTTLFDVFNFLSECFQGGLRQAWDKRGRAKELKTRGADGPVVIEIKYRESKATPLITYHLSIDEGPKGPVVAEEWLAWTRGTQGRPWRFLDYRLGKGVVVGGELPDEKDERLDVPLRSAELLAVNTLGQIAQHPRVAALRDFITDWYVSYLSVDNTRTQPEAGPMEQLSKTGDNLPNVIQYLQETHPEQLQSITEVLRRRIPRLERIDATPMPDGRLLLEVKDAPFDKPVLSKFASDGTLKMLAYLTVLYDPEPPRFIGIEEPENFLHPRLLPELGEECRHASERTQLLVTTHSPFFLNSCRPDEVRILFRDEQGHTQVRTAADIEGIPEFVAAGASLGHLWIEGQFGMSDPLRNQGAPWTIEGARRGH
soluble on expression in E. coli: not soluble

MPLTPLHQVELRLMRTVIAICEAENIDYFLIGGSLLGAIRHHGFIPWDDDIDIGMRRHDYQRFIAVANHHLDPNKFFLQTGASDPDYALSYMKLLDVNTYIEERNNVNNAFKGVFVDIFPFDKIPDDEALRRSQMLHYKLADAAILLKLNYRFVKTPLRNLITKHTPQQLAEVNRYKLEREEYMRLYEQSDSRTYKNLASQYDYEKEIMTYQELTELTTVPFEDIQVKIPSAYDTILTRMYGDYMQLPPADKRVEKHLNKLIIDNHEILLEHHHHHH
soluble on expression in E. coli: not soluble

MADIQGEDLESLYGYAKQLFDGGEIAAARNVYQLLSTLDHWNFDYLLALGLCHQRLGAHNEAVVCFGRAGLIKVDDPRAAFYAGISYRLDGNAEYASKAFKAAINWCGEQIDYQAIKASAVDMLALQQEEVPLEHHHHHH
soluble on expression in E. coli: soluble

MGSDKIHHHHHHMDGEGMSVGHYENFPVGSLILPRRLRKPVHAVYAFARTADDMADEGSMPSEARLSGLEGLRRELDVLASGGRSAHPLIARLDAEAVVPFGLDLQPFYDLLSAFSQDVVKTRYAHFGDLTDYCRRSANPVGRIMLALYGKTDAVCVAQSDGICTALQLVNFWQDVAVDWQKGRVYIPQDDLLKFGVSEEQIAAGRADAAFQRLMAYECRRAFRMLKAGSPLARELKGRIGLELRMIVLGAQLILQKLDACRYDVFAQRPVLDKKDWLIMLKRALWK
soluble on expression in E. coli: not soluble

KDWRDKDQSDGFGKVYVTEKVAQIKQIPFDASKLHSSPQMAAQHNMVDDGSGKVEIWRVENNGRIQVDQNSYGEFYGGDCYIILYTYPRGQIIYTWQGANATRDELTTSAFLTVQLDRSLGGQAVQIRVSQGKEPVHLLSLFKDKPLIIYKNGTSKKGGQAPAPPTRLFQVRRNLASITRIVEVDVDANSLNSNDVFVLKLPQNSGYIWVGKGASQEEEKGAEYVASVLKCKTLRIQEGEEPEEFWNSLGGKKDYQTSPLLETQAEDHPPRLYGCSNKTGRFVIEEIPGEFTQDDLAEDDVMLLDAWEQIFIWIGKDANEVEKKESLKSAKMYLETDPSGRDKRTPIVIIKQGHEPPTFTGWFLGWDSSKW
soluble on expression in E. coli: soluble

MGSDKIHHHHHHMDRSERLIQLISEEGIDAFLIMNIENSARASSVYFSGFTGSFSIILISENTRLLITDSRYTVQAKQETDFEVREVKGGDFIDVLKKTVNDLKIKTIALEEERVSLSLFRRISSAFGDRKFIGIDDEVKQMRMVKDEGEIEKIKQAIEISERAFLETVQQIRAGMTEKEIAALLEYTMRKEGAEGVAFDTIVASGCRSALPHGKASDKVVERGDVIVIDFGATYENYCADITRVVSIGEPSDEVKEVHSIVLEAQERALKIAKAGVTGKLLDSVAREFIREKGYGEFFGHSLGHGIGLEVHEGPAISFRNDSPLPENVVFTVEPGIYLEGKFGIRIEEDVVLKEQGCEILTTLPRSIFVV
soluble on expression in E. coli: not soluble

SLKTKTFKMQLQFLSEQNLEINNNNQLLNQEKITYLQKIEQLKCKLEYQERMIKDSEKIREESFASAKAALFDLGKDLSKQLIEIHKMENNTTRELAEKNIETASQKFNTELERLITMVGALNKDIEQSKGTVDLIKQSLLSPIGAGLLSEITLENILKSSGLRPNLDFIMQYSLTTSDSVKLRPDAIIFLPSGNLMVIDSKASKFLVDSQDNSVHLSKTMNYHLKTLTNKDYAENILTNLNKKTQNFNNVITLMFLPTEQAVEKVIAANPEFLQKAWGCNIFPVGPAGLMNMLSFAKFQITDNRRSENYKVIIEEVRKLLSSIGTIADYSKKIGYNLQNMVTNYDKFAASFNRNVMSRVKSIQKLGIDSGNKIIPATLERYQIVSAKSEIIEVDVENQHK
soluble on expression in E. coli: soluble

MPEQSIEMTPDSSVYKALLESTKAIPWKINWQTMAFEYIGPQIEALLGWPQGSWKSVEDWATRMHPEDQEWVVNFCVKQSECGVDHEADYRALHRDGHYVWIRDVVHVVRDDSGEVEALIGFMFDISERKKTLEHHHHHH
soluble on expression in E. coli: not soluble

MPLLDSFTVDHTRMNAPAVRVAKTMQTPKGDTITVFDLRFTMPNKDILSERGIHTLEHLYAGFMRNHLNGSQVEIIDISPMGCRTGFYMSLIGAPTEQQVAQAWLAAMQDVLKVESQEQIPELNEYQCGTAAMHSLEEAKAIAKNVIAAGISVNRNDELALPESMLNELKVH
soluble on expression in E. coli: not soluble

QMTLTELRAFLDQMNNLPCAMHQIGDVKGVLEQVEAYQAEAREALASLPSSPGLLQSLLERGRQLGVEVPEAQQLQRQVEQARWLDEVKRTLAPSARRGTLAVMRGLLVAGASVAPSPAVDKAQAELQELLTIAERWEEKAHLCLEARQKHPPATLEAIIREAENIPVHLPNIQALKEALAKARAWIADVDEIQNGDHYPCLDDLEGLVAVGRDLPVGLEELRQLELQVLTAHSWREKASKTFLKKNS
soluble on expression in E. coli: not soluble

MISKGFSTQTERINILKAQILNAKPCVESERAILITESFKQTEGQPAILRRALALKHILENIPITIRDQELIVGSLTKEPRSSQVFPEFSNKWLQDELDRLNKRTGDAFQISEESKEKLKDVFEYWNGKTTSELATSYMTEETREAVNCDVFTVGNYYYNGVGHVSVDYGKVLRVGFNGIINEAKEQLEKNRSIDPDFIKKEKFLNSVIISCEAAITYVNRYAKKAKEIADNTSDAKRKAELNEIAKICSKVSGEGAKSFYEACQLFWFIHAIINIESNGHSISPARFDQYMYPYYENDKNITDKFAQELIDCIWIKLNDINKVRDEISTKHFGGYPMYQNLIVGGQNSEGKDATNKVSYMALEAAVHVKLPQPSLSVRIWNKTPDEFLLRAAELTREGLGLPAYYNDEVIIPALVSRGLTLEDARDYGIIGCVEPQKPGKTEGWHDSAFFNLARIVELTINSGFDKNKQIGPKTQNFEEMKSFDEFMKAYKAQMEYFVKHMCCADNCIDIAHAERAPLPFLSSMVDNCIGKGKSLQDGGAEYNFSGPQGVGVANIGDSLVAVKKIVFDENKITPSELKKTLNNDFKNSEEIQALLKNAPKFGNDIDEVDNLAREGALVYCREVNKYTNPRGGNFQPGLYPSSINVYFGSLTGATPDGRKSGQPLADGVSPSRGCDVSGPTAACNSVSKLDHFIASNGTLFNQKFHPSALKGDNGLMNLSSLIRSYFDQKGFHVQFNVIDKKILLAAQKNPEKYQDLIVRVAGYSAQFISLDKSIQNDIIARTEHVM
soluble on expression in E. coli: soluble

MAHHHHHHMELNKLCSFLLRGNISHCENAPTGENAPKGENAQTGENAPKSENPPKSEHSQALFQDASGGKNNDSILDVIKKIPINPFIDSNEDLNKYKYGVEKKKIQRYTGVQVYEEEDKDHKKNQPVDYPFPVSKSVVFEKNKVNKSEDRININYSNIASDLYPEEGFKTPNRKKHFSSDWEMLLAHNHGLYNFKNTDHNTIVNKDMYALNTENDIRNKLNLYVERINVDNPNDACKYLAIEEYKCLLTHSFHMNPDVSNQKCVKWFNEYMQCKWDEHKLNYGYNYIENRRNKKSKAYIAAPDYQYS
soluble on expression in E. coli: not soluble

MGSDKIHHHHHHMRIRPDRNRGRSAGINPSGRFEPVSRHVFDDGWSSLEELPPFKTEVQVEKPRTIITRNESPDISFDRSINPYRGCEHGCVYCFARPTHAFMGLSPGLDFETKLFAKPDAARLLDKELSKEGYQPRTIAIGTNTDPYQPIEKQYRIMREILEVLEARGHPVGIVTKSALVTRDIDILSRMAERGLAKVALSVTTLDRMLARTMEPRASTPTKRLEAIRQLSDAGIPTSVMVAPIIPGLTDQEMERILDSAYAAGAREAGYVVLRLPLEVSPIFKDWLLRHYPDRYRHVMSLIRSMRDGKDYDSEWGKRMKGAGPYAWQIGRRFEITAKRLGLNIERRTLRTDQFVAAGKDQEQLMLL
soluble on expression in E. coli: not soluble

MPSLGEAPQDLQRSQERRRIERIFAQGGKGVASPHRFPGPLPMLQNIPTHVIAGPLGAGKTSLIRHLLSQRPAAERWAVLINEFGQIGLDAALLTRDEDGIALGEVAGGCLCCVNGAPFQVGLGRLLRKARPDRLLIEPSGLGHPAQLLKQLNEAPWKGVLAVQPCVLVLDAQALAAGKPLPRAQQDALSSAGLLVLNKDELLSDSDRLRVLEQLPDLPLFWTRHAALPLAELPGLGASAEAALEQSDIPQGLAQLPAVWSDPTLPICLSQSQEDGWSIGWRWHPSQQFDLVRVEHWLQNLDWRRAKLVLHSDQGWRSGNGLDNSPLNWLPSEWRRDSRLELIFSSPQDIAVLQASLDACRLLEHHHHHH
soluble on expression in E. coli: not soluble

MGSDKIHHHHHHMDLASKYFNGVNWRYIDHSSGLEPMQSFAFDDTFCESVGKDISDNVVRTWIHQHTVILGIHDSRLPFLKDGIDYLTNEIGYNAIVRNSGGLGVVLDQGVLNISLMFKGQTETTIDEAFTVMYLLISKMFEDENVDIDTMEIEHSYCPGKFDLSIDGKKFAGISQRRVRGGIAVQIYLCVEGSGSERALMMQTFYEHALKGEVTKFKYPEIEPSCMASLETLLNKTITVQDVMFLLLYAIKDLGGVLNMTPITQEEWQRYDTYFDKMIERNKKMIDQMQ
soluble on expression in E. coli: not soluble

MGSDKIHHHHHHMSENHWENQPGTPPDVTPECGQESDGERLYLWRQIVHWRSGTGGSQCNPLIELDKQNHWSVMNGGATGASGWLLVPTDRKKGIECRDIWTHRDPNYWNAAWGYVRSPYGSPTTTGLGINSKDKRTQDQLHIHIATFQSDAKTYLDARSPSEIATTPGDWAKKLLTVPSDSKPGQVYRVLHVKDLATDNLFNLLQSNVVSSDQMGNQTMIVIPAKSGGFYVLNSDISLSQGAAFGTGTCNHLLKCS
soluble on expression in E. coli: not soluble
